According to IntAct's records for PubMed 26635368:

B1: Sprouty-related, EVH1 domain-containing protein 1 (Homo sapiens), Q7Z699 (parent)
chain: MSEETATSDNDNSYARVRAVVMTRDDSSGGWLPLGGSGLSSVTVFKVPHQEENGCADFFIRGERLRDKMVVLECMLKKDLIYNKVTPTFHHWKIDDKKFGLTFQSPADARAFDRGIRRAIEDISQGCPESKNEAEGADDLQANEEDSSSSLVKDHLFQQETVVTSEPYRSSNIRPSPFEDLNARRVYMQSQANQITFGQPGLDIQSRSMEYVQRQISKECGSLKSQNRVPLKSIRHVSFQDEDEIVRINPRDILIRRYADYRHPDMWKNDLERDDADSSIQFSKPDSKKSDYLYSCGDETKLSSPKDSVVFKTQPSSLKIKKSKRRKEDGERSRCVYCQERFNHEENVRGKCQDAPDPIKRCIYQVSCMLCAESMLYHCMSDSEGDFSDPCSCDTSDDKFCLRWLALVALSFIVPCMCCYVPLRMCHRCGEACGCCGGKHKAAG

Variants of: B1
Conditions: with nf1_human NF1, P21359
nf1_human NF1, P21359, sequence (P21359 whole entry): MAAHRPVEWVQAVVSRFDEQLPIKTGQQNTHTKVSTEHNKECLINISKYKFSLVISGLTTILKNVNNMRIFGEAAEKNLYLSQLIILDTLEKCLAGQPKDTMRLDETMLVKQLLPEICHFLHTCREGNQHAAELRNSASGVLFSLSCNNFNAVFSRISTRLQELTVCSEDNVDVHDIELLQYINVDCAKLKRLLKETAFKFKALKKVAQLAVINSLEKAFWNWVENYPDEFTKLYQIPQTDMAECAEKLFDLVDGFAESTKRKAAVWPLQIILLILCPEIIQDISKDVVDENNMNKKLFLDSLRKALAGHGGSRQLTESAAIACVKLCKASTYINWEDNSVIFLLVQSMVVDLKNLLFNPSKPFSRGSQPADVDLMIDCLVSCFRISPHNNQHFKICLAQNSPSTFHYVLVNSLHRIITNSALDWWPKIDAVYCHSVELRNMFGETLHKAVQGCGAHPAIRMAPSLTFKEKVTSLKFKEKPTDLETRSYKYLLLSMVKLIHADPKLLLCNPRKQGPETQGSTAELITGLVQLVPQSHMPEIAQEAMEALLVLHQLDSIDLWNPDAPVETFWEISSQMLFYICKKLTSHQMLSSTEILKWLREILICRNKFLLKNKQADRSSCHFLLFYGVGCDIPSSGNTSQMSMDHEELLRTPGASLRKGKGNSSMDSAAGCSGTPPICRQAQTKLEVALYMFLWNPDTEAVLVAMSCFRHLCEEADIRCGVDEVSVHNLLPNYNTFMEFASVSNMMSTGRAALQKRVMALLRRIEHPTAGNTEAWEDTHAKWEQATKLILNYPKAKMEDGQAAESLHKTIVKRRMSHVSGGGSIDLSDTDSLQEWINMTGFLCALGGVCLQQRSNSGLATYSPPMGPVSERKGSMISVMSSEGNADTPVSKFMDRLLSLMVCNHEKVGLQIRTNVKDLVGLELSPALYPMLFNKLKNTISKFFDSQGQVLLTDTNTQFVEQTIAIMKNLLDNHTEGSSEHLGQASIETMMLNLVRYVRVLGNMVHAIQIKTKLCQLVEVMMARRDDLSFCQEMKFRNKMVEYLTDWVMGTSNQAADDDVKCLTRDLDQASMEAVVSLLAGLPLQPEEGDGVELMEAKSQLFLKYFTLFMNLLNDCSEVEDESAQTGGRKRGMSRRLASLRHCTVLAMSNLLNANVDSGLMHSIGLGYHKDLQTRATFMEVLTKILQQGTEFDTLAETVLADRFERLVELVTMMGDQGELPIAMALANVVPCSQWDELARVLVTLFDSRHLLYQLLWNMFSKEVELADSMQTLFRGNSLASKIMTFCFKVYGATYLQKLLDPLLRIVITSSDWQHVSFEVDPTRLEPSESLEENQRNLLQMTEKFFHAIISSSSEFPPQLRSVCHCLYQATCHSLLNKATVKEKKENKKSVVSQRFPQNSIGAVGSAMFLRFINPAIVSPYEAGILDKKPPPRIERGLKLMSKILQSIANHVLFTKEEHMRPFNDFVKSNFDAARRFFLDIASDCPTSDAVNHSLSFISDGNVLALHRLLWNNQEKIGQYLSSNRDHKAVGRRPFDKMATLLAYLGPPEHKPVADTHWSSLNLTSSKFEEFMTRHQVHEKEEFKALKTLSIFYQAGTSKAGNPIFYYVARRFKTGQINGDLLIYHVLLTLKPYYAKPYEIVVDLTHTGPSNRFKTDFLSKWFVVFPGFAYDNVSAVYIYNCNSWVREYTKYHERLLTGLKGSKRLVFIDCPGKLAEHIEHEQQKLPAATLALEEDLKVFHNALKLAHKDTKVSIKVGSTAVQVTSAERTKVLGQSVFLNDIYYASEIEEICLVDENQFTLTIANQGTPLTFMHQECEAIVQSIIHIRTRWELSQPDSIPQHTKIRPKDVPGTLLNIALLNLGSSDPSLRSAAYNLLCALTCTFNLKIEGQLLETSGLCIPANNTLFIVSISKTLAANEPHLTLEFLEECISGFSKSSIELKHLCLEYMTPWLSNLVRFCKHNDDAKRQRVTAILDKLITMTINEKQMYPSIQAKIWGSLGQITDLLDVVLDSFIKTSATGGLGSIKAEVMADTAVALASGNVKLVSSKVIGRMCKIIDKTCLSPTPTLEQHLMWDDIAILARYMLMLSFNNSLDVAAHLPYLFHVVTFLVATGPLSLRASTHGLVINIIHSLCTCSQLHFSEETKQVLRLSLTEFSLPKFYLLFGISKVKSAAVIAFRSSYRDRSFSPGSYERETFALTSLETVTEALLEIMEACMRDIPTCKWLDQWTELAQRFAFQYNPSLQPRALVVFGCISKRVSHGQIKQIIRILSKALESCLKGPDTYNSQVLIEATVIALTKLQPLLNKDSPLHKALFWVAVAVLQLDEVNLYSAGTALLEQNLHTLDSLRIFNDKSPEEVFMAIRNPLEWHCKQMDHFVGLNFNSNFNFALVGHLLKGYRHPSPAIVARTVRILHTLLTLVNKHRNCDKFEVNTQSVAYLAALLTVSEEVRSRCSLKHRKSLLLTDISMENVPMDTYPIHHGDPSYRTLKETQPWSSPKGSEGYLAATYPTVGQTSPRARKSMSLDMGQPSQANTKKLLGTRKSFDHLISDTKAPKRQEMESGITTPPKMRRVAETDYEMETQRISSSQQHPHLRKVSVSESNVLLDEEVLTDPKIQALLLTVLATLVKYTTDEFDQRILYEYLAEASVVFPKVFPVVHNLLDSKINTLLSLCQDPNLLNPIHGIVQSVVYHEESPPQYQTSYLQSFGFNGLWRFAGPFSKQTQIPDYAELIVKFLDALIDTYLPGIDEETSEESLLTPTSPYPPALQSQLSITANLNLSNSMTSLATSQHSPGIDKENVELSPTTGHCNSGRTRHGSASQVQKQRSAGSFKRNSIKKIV

Row | effect of a mutation on the interaction | Variant
1 | decreasing interaction strength | L80R
2 | with no effect | C74F
3 | disrupting interaction strength | T88K
4 | disrupting interaction strength | W92R
5 | disrupting interaction strength | T102K
6 | decreasing interaction strength | T102R
7 | decreasing interaction strength | T102M
8 | decreasing interaction strength | G100D
9 | decreasing interaction strength | I116N

Second part, the variant before the results:

Row | Variant | effect of a mutation on the interaction
10 | W31C | decreasing interaction strength
11 | W31L | disrupting interaction strength
12 | G30R | decreasing interaction strength
13 | V44D | disrupting interaction strength
14 | D9V | with no effect
15 | V42I | with no effect
16 | N10K | with no effect
17 | G62R | decreasing interaction strength
18 | R24Q | decreasing interaction strength

Variants of: B1
Conditions: with nf1_human NF1, P21359
Remark: another data set of the same source

Row | effect of a mutation on the interaction | Variant
19 | disrupting interaction strength | W31C
20 | disrupting interaction strength | G30R

Variants of: B1
Conditions: with nf1_human NF1, P21359
Remark: another data set of the same source

Row | effect of a mutation on the interaction | Variant
21 | disrupting interaction strength | T102R
